B1: open TG2: recombinant TG2 stabilized in its open form by reaction with the inhibitor Z-PIMen(OEt)-QPL-OMe (protein, UniProt P21980 2-687, looked up)
Protein-glutamine …: AEELVLERCDLELETNGRDHHTADLCREKLVVRRGQPFWLTLHFEGRNYEASVDSLTFSVVTGPAPSQEAGTKARFPLRDAVEEGDWTATVVDQQDCTLSLQLTTPANAPIGLYRLSLEASTGYQGSSFVLGHFILLFNAWCPADAVYLDSEEERQEYVLTQQGFIYQGSAKFIKNIPWNFGQFEDGILDICLILLDVNPKFLKNAGRDCSRRSSPVYVGRVVSGMVNCNDDQGVLLGRWDNNYGDGVSPMSWIGSVDILRRWKNHGCQRVKYGQCWVFAAVACTVLRCLGIPTRVVTNYNSAHDQNSNLLIEYFRNEFGEIQGDKSEMIWNFHCWVESWMTRPDLQPGYEGWQALDPTPQEKSEGTYCCGPVPVRAIKEGDLSTKYDAPFVFAEVNADVVDWIQQDDGSVHKSINRSLIVGLKISTKSVGRDEREDITHTYKYPEGSSEEREAFTRANHLNKLAEKEETGMAMRIRVGQSMNMGSDFDVFAHITNNTAEEYVCRLLLCARTVSYNGILGPECGTKYLLNLNLEPFSEKSVPLCILYEKYRDCLTESNLIKVRALLVEPVINSYLLAERDLYLENPEIKIRILGEPKQKRKLVAEVSLQNPLPVALEGCTFTVEGAGLTEEQKTVEIPDPVEAGEEVKVRMDLLPLHMGLHKLVVNFESDKLKAVKGFRNVIIGPA
modifications: Z-PIMen(OEt)-QPL-OMe inhibitor adduct
B2: TG2 ΔS538: tissue transglutaminase deletion mutant lacking C-terminal amino acids from position S538 (protein, UniProt P21980 1-537, looked up, fragment)
chain: MAEELVLERCDLELETNGRDHHTADLCREKLVVRRGQPFWLTLHFEGRNYEASVDSLTFSVVTGPAPSQEAGTKARFPLRDAVEEGDWTATVVDQQDCTLSLQLTTPANAPIGLYRLSLEASTGYQGSSFVLGHFILLFNAWCPADAVYLDSEEERQEYVLTQQGFIYQGSAKFIKNIPWNFGQFEDGILDICLILLDVNPKFLKNAGRDCSRRSSPVYVGRVVSGMVNCNDDQGVLLGRWDNNYGDGVSPMSWIGSVDILRRWKNHGCQRVKYGQCWVFAAVACTVLRCLGIPTRVVTNYNSAHDQNSNLLIEYFRNEFGEIQGDKSEMIWNFHCWVESWMTRPDLQPGYEGWQALDPTPQEKSEGTYCCGPVPVRAIKEGDLSTKYDAPFVFAEVNADVVDWIQQDDGSVHKSINRSLIVGLKISTKSVGRDEREDITHTYKYPEGSSEEREAFTRANHLNKLAEKEETGMAMRIRVGQSMNMGSDFDVFAHITNNTAEEYVCRLLLCARTVSYNGILGPECGTKYLLNLNLEPF
B3: TG2 ΔE447: tissue transglutaminase deletion mutant lacking C-terminal amino acids from position E447 (protein, UniProt P21980 1-446, looked up, fragment)
chain: MAEELVLERCDLELETNGRDHHTADLCREKLVVRRGQPFWLTLHFEGRNYEASVDSLTFSVVTGPAPSQEAGTKARFPLRDAVEEGDWTATVVDQQDCTLSLQLTTPANAPIGLYRLSLEASTGYQGSSFVLGHFILLFNAWCPADAVYLDSEEERQEYVLTQQGFIYQGSAKFIKNIPWNFGQFEDGILDICLILLDVNPKFLKNAGRDCSRRSSPVYVGRVVSGMVNCNDDQGVLLGRWDNNYGDGVSPMSWIGSVDILRRWKNHGCQRVKYGQCWVFAAVACTVLRCLGIPTRVVTNYNSAHDQNSNLLIEYFRNEFGEIQGDKSEMIWNFHCWVESWMTRPDLQPGYEGWQALDPTPQEKSEGTYCCGPVPVRAIKEGDLSTKYDAPFVFAEVNADVVDWIQQDDGSVHKSINRSLIVGLKISTKSVGRDEREDITHTYKYP

Legend:
[1] = test system: Patient F (celiac disease); assay: hyposensitisation of a celiac disease patient with open TG2; format: in vivo, human; settings: subcutaneous, 6 months weekly rising doses, then monthly 1.5 years; then 1 g gluten per day
Source text: Patient F suffered from celiac disease and has been on gluten free diet for 8 years. […] Patient F has been injected subcutaneously a solution containing open TG2, which has been produced according to example 1. Injections have been repeated weekly over a period of six months; the doses have been increased over this period in order to reach the maintenance dose. The application has then been repeated applying the maintenance dose once a month for 1.5 years. Patient F was kept on a strict gluten free diet for this whole hyposensitisation therapy period. Later-on the patient started to consume minor amounts (1 g per day) of gluten in addition to the gluten free diet.

[2] = enzymatic activity of truncated tissue transglutaminases; format: biochemical
Source text: Tissue transglutaminase fragments were produced recombinantly in E. coli as deletion mutants lacking C-terminal amino acids from positions S538 and E447 according to example 1 an methods known to persons skilled in the art. The resulting truncated tissue transglutaminases still were enzymatically active, although the activity was reduced to 5 and 1% respectively compared to the full length enzyme. Transglutaminase 6 fragment lacking the C-terminal amino acids from position G594 was produced accordingly.

| Molecule | celiac disease symptoms after hyposensitisation therapy [1] | enzymatic activity compared to the full length enzyme [2] [%] |
| --- | --- | --- |
| B1 | No celiac disease symptoms could be measured clinically or by biopsy or serology |  |
| B2 |  | 5 |
| B3 |  | 1 |

Source: patent US8808980B2, “Stabilized open form transglutaminase as a diagnostic indictor for autoimmune diseases” (Zedira GmbH, priority 2009, dated 2014)
